Columns and labels:
[1] = target: hMN-14×734 (Fab×Fab) bi-specific antibody; assay: SE-HPLC shift with WI2 after incubation of radioiodinated bsAb in human serum at 37° C.
[2] = target: Ac-Lys(DTPA)-Tyr-Lys(DTPA)-Lys(Tscg-Cys)-NH2 (IMP 192); assay: calculated from biodistribution in GW-39 tumor-bearing nude mice, 24 h after peptide, assuming one peptide bound to one bsAb
[3] = target: Ac-Lys(DTPA)-Tyr-Lys(DTPA)-Lys(Tscg-Cys)-NH2 (IMP 192); assay: calculated from biodistribution in GW-39 tumor-bearing nude mice, 30 min after peptide, assuming one peptide bound to one bsAb
[4] = target: carcinoembryonic antigen (CEA) (UniProt P06731); assay: analytical size exclusion HPLC, radioiodinated bsAb with 10-20× molar excess of CEA
[5] = target: Ac-Lys(DTPA)-Tyr-Lys(DTPA)-Lys(Tscg-Cys)-NH2 (IMP 192); assay: calculated from biodistribution in GW-39 tumor-bearing nude mice, 1 h after peptide, assuming one peptide bound to one bsAb
[6] = target: Ac-Lys(DTPA)-Tyr-Lys(DTPA)-Lys(Tscg-Cys)-NH2 (IMP 192); assay: calculated from biodistribution in GW-39 tumor-bearing nude mice, 3 h after peptide, assuming one peptide bound to one bsAb
[7] = target: DOTA-Phe-Lys(HSG)-D-Tyr-Lys(HSG)-NH2 (IMP 241); assay: in vivo pretargeting, GW-39 tumor-bearing nude mice, 3 h after 111In-IMP-241
[8] = target: carcinoembryonic antigen (CEA) (UniProt P06731); assay: SE-HPLC, 125I-labeled bsMAb with an excess of CEA
[9] = target: peptide containing a single HSG substituent and a thiol; assay: BIAcore, CM-5 chip derivatised with the mono HSG peptide
[10] = target: carcinoembryonic antigen (CEA) (UniProt P06731); assay: immunoreactivity test of 99mTc-hMN-14 Fab′, method and antigen not stated

carcinoembryonic antigen (CEA), sequence (P06731 35-685 limits assumed): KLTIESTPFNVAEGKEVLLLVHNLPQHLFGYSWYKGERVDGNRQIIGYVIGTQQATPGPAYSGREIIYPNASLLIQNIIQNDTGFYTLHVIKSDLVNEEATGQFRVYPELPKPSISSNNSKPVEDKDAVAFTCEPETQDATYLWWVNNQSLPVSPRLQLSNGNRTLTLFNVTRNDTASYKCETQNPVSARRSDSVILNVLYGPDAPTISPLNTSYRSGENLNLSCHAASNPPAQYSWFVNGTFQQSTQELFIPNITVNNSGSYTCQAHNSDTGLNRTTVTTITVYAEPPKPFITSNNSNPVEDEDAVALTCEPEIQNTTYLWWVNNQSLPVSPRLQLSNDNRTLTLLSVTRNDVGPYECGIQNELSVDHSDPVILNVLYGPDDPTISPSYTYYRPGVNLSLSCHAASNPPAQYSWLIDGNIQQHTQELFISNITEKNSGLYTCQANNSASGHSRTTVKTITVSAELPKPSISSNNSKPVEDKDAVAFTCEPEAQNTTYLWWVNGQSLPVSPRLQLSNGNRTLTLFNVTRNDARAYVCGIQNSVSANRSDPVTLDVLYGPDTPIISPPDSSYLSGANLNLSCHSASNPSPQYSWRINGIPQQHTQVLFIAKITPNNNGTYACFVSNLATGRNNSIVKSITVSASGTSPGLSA

For WI2 (rat anti-MN-14 idiotypic antibody), the % loss of binding capacity to WI2 after 48 h in serum [1] was 3 to 5%.

“hMN-14×734 (Fab×Fab) bi-specific antibody (bispecific antibody)” was tested, and the % saturation on hMN-14 × 734 (available DTPA binding sites on the tumor bound bsAb filled with 99m-Tc-IMP-192) [2] was 28%, the % saturation on hMN-14 × 734 (available DTPA binding sites on the tumor bound bsAb filled with 99m-Tc-IMP-192) [3] was 25.4% and the percent of bsAb bound [4] was 90%. For the same molecule, the % saturation on hMN-14 × 734 (available DTPA binding sites on the tumor bound bsAb filled with 99m-Tc-IMP-192) [5] was 25.8% and the % saturation on hMN-14 × 734 (available DTPA binding sites on the tumor bound bsAb filled with 99m-Tc-IMP-192) [6] was 25%.

Molecule “hMN-14×m679 F(ab′)2 bsMAb (bispecific antibody)” has a ratio of the % ID/g of the peptide compared to the bsMAb in the tumor [7] of 3.9, a percent of radiolabeled product shifting to a higher molecular weight [8] greater than 90% and a Kd [9] of 1.5 nM.

B1: 99mTc-hMN-14 Fab′ (humanized MN-14 Fab′-SH) (Fab, INN chains, looked up, V domains shown)
VH: EVQLVESGGGVVQPGRSLRLSCSASGFDFTTYWMSWVRQAPGKGLEWIGEIHPDSSTINYAPSLKDRFTISRDNAKNTLFLQMDSLRPEDTGVYFCASLYFGFPWFAYWGQGTPVTVSS
VL: DIQLTQSPSSLSASVGDRVTITCKASQDVGTSVAWYQQKPGKAPKLLIYWTSTRHTGVPSRFSGSGSGTDFTFTISSLQPEDIATYYCQQYSLYRSFGQGTKVEIK
modifications: Fab' 99mTc label
Work on B1 yielded an immunoreactive fraction [10] of 92%.

From patent US20060034759A1
